Experimental data from PMC3928677 (Science (New York, N.Y.), 2013).
Where “and” joins values, the source holds several entries; their conditions need not be identical. Identical values can stand only once. Like-named read-outs stand apart in the source and are kept apart here.

Legend:
[1] = target: T1, RseB (Escherichia coli, UniProt P0AFX9); test: fluorescence anisotropy, displacement of fluorescent RseA^P; type: binding
T1 sequence (P0AFX9 24-318): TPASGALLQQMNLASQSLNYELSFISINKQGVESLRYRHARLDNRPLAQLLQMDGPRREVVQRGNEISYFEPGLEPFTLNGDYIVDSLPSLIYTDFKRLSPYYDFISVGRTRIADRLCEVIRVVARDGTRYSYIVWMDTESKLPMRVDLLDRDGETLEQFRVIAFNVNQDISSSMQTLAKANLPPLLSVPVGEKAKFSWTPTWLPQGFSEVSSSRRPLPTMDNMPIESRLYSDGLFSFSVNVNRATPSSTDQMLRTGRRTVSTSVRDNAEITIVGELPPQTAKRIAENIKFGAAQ

[2] = target: the molecule itself; test: SEC
[3] = target: the molecule itself; test: SEC; remark: listed apart in the source

In the case of `CCCCCCCCCCC[C@@H](O)CC(=O)N[C@H]1[C@H](OC[C@H]2O[C@H](OP(=O)(O)O)[C@H](NC(=O)C[C@H](O)CCCCCCCCCCC)[C@@H](O)[C@@H]2O)O[C@H](CO)[C@@H](OP(=O)(O)O)[C@@H]1O` [L-IIA], the EC50 [1] is reported as ~65 µM.

B1: MucB (natural protein, Pseudomonas aeruginosa, UniProt P38108 22-316, looked up)
chain: ADASDWLNRLAEADRQNSFQGTFVYERNGSFSTHEIWHRVESDGAVRERLLQLDGARQEVVRVDGRTQCISGGLADQLADAQLWPVRKFDPSQLASWYDLRLVGESRVAGRPAVVLAVTPRDQHRYGFELHLDRDTGLPLKSLLLNEKGQLLERFQFTQLNTGAAPAEDQLQAGAECQVVGPAKADGEKTVAWRSEWLPPGFTLTRSFMRRSPVTPDPVACLTYGDGLARFSVFIEPLHGAMVGDARSQLGPTVVVSKRLQTDDGGQMVTVVGEVPLGTAERVALSIRPEAAAQK
modifications: 35S label (in the elution assay from MucA^P-agarose only)
B1 was tested, and the “stoichiometry N” value [2] was 4 and 2.

B2: RseB (natural protein, E. coli, UniProt P0AFX9 24-318, looked up)
chain: TPASGALLQQMNLASQSLNYELSFISINKQGVESLRYRHARLDNRPLAQLLQMDGPRREVVQRGNEISYFEPGLEPFTLNGDYIVDSLPSLIYTDFKRLSPYYDFISVGRTRIADRLCEVIRVVARDGTRYSYIVWMDTESKLPMRVDLLDRDGETLEQFRVIAFNVNQDISSSMQTLAKANLPPLLSVPVGEKAKFSWTPTWLPQGFSEVSSSRRPLPTMDNMPIESRLYSDGLFSFSVNVNRATPSSTDQMLRTGRRTVSTSVRDNAEITIVGELPPQTAKRIAENIKFGAAQ
modifications: 35S label (in the elution assay from RseA^P-agarose only)
For B2, the “stoichiometry N” value [3] was 2 and the “stoichiometry N” value [2] was 4.
